Experiments:
[1] = target: T1, HNF4α ΔABΔF (DBD-hinge-LBD) (human, UniProt P41235-2 55-377); experiment: fluorescence anisotropy
T1 sequence: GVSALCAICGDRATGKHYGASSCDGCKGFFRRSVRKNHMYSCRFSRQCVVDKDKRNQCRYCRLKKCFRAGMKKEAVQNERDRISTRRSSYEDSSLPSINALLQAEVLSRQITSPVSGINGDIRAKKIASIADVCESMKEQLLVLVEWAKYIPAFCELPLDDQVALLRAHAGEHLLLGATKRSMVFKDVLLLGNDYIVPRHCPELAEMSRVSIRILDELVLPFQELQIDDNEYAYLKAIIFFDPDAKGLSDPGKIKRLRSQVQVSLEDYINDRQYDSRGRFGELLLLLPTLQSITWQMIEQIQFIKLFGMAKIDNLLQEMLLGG

[2] = target: T2, HNF4α DBD (DBD-hinge) (human, UniProt P41235-2 55-135); experiment: fluorescence anisotropy
T2 sequence: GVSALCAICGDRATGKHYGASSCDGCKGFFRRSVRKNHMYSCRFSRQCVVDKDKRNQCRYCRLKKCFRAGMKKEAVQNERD

B1: DR1 (5'-fluorescein top strand) (dsDNA)
DNA 1: GGAACTAGGTCAAAGGTCAG
DNA 2: CCTGACCTTTGACCTAGTTC
Kd [1]: 0.082 µM | Kd [2]: ~6 µM
